Measured values published in US20090104146A1.

Target: gp130/OSMRβ receptor complex (type II OSM receptor) on NHEK (human) (UniProt P40189)
Assay: cell-based or functional assay

Chain of gp130/OSMRβ receptor complex (type II OSM receptor) on NHEK (human) (P40189 23-918, chain 1 of 2): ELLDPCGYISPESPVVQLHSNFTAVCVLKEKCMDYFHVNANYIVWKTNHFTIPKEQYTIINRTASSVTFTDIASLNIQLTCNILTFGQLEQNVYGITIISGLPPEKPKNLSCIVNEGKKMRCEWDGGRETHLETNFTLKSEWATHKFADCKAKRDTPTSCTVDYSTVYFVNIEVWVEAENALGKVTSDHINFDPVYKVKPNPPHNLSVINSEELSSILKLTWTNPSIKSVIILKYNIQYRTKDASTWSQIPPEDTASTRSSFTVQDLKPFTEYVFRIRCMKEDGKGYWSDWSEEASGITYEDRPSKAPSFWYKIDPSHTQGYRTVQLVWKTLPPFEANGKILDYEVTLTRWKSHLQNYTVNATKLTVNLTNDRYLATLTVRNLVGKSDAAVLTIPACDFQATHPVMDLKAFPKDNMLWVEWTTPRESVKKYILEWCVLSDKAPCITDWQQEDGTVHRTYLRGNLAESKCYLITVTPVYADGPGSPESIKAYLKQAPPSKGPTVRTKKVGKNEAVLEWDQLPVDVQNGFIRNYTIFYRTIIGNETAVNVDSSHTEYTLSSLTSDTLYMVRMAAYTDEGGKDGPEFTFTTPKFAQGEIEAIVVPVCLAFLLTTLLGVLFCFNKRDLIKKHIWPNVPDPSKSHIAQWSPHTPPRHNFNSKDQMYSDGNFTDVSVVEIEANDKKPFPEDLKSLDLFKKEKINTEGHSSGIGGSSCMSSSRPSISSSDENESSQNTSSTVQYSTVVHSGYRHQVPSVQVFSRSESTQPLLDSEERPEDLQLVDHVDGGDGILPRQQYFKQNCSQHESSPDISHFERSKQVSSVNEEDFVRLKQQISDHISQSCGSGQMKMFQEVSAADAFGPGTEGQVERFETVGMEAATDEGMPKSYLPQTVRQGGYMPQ
Chain of gp130/OSMRβ receptor complex (type II OSM receptor) on NHEK (human) (Q99650 28-979, chain 2 of 2, further chain): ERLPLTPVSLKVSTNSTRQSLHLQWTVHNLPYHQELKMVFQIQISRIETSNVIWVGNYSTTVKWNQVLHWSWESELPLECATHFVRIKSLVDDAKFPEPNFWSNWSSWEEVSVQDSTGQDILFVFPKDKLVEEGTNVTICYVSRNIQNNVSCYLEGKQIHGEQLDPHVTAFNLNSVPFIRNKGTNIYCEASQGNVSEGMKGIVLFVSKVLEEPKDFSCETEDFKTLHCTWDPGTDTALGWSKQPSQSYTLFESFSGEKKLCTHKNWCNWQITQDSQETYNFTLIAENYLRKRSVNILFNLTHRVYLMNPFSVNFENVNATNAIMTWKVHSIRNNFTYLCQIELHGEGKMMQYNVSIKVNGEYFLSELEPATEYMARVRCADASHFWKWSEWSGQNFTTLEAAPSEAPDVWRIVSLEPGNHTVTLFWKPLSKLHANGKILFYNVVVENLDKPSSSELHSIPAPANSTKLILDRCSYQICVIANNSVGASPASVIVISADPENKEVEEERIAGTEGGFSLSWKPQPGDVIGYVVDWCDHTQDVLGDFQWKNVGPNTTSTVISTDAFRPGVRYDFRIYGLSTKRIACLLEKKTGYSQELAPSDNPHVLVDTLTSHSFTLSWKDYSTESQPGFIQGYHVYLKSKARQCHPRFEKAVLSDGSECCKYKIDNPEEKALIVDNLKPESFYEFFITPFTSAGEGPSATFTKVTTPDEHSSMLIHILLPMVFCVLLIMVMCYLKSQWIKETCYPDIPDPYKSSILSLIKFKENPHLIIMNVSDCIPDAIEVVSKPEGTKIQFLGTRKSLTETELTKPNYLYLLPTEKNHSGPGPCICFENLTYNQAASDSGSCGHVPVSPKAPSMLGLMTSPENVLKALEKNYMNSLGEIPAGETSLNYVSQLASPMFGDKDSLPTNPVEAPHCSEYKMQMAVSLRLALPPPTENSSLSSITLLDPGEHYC

tyrosine phosphorylation of STAT3 in NHEK (Western blot): 3 ng/mL
Substance: Human recombinant oncostatin M (OSM) (from UniProt P13725 26-221) (ligand)
